As a reminder, the EC50 is the concentration needed to bring the measured effect to its halfway point.

For assay [1], the target named is T1, PD-1 on PD-1 reporter Jurkat cells (PATHHUNTER Checkpoint Signaling Assay) (UniProt Q15116 25-288). Briefly: cell-based or functional assay.
Assay [2] addresses T1, PD-1 on PD-1 reporter Jurkat cells …. Briefly: cell-based or functional assay. The source holds these as a separate data set.
In assay [3] the target is T2, Recombinant human PD-1 extracellular domain (with an immunoglobulin Fc region or a His tag) (human, UniProt Q15116 25-170).
T2 construct: extracellular domain; Coated on ELISA plates; not shown: either an immunoglobulin Fc region or a His tag
Briefly: ELISA, plate-coated recombinant PD-1 extracellular domain, HRP anti-human IgM detection. The method, then:
(§1) An enzyme-linked immunosorbent assay (ELISA) was performed to assess the binding of anti-PD-1 antibodies to human, cynomolgus monkey, or mouse PD-1. Recombinant proteins containing the extracellular domain of PD-1 together with either an immunoglobulin Fc region or a His tag were used to coat wells of standard 96 well ELISA plates by overnight incubation at 4° C. Unbound recombinant protein was removed, Pierce SUPERBLOCK™ T20 was added, and plates were incubated for 10 minutes at room temperature with shaking. Plates were washed with phosphate buffered saline-TWEEN-20 (PBST), and anti-PD-1 antibodies were added in phosphate buffered saline (PBS) with 1% bovine serum albumin (BSA) and incubated for one hour at room temperature with shaking. Plates were then washed in PBST and incubated with horse radish peroxidase (HRP)-conjugated secondary antibodies in F(ab′)2 directed to either human IgG or human IgM. After one hour, plates were washed again with PBST, signal was developed with SUPERSIGNAL™ ELISA Pico substrate, and an ENVISION® luminometer (PerkinElmer) was used to record signal. Data were analyzed with […] PRISM®.

Assay [4] deals with T3, Human PD-1 overexpressed on HEK293 cells (human, UniProt Q15116 25-288).
T3 construct: whole, on cells
The assay is described as follows: flow cytometry on HEK293 cells overexpressing human PD-1, PE anti-human IgM detection. How it is done:
(§2) HEK293 cells were modified to overexpress human or mouse PD-1. Cells were expanded in puromycin-containing media to maintain selection, and aliquoted to 96 well V-bottom plates for antibody staining and flow cytometric analysis. Anti-PD-1 antibodies were added to cells in BD stain buffer with fetal bovine serum (BD Biosciences, cat. #554656) and incubated on ice for 20 minutes. Cells were then washed, and R-phycoerythrin (PE)-labeled anti-human IgG or anti-human IgM secondary antibodies were then added and incubated for an additional 20 minutes. Data were collected on a Beckman Coulter CYTOFLEX® cytometer and analyzed in FLOWJO™.

Assay [5] concerns the target T1, PD-1 on PD-1 reporter Jurkat cells …. The assay is described as follows: cell-based or functional assay. The source holds these as a separate data set.
In assay [6] the target is T4, Recombinant mouse PD-1 extracellular domain (with an immunoglobulin Fc region or a His tag) (mouse, UniProt Q02242 25-169).
T4 construct: extracellular domain; Coated on ELISA plates; not shown: either an immunoglobulin Fc region or a His tag
T4 sequence (looked up): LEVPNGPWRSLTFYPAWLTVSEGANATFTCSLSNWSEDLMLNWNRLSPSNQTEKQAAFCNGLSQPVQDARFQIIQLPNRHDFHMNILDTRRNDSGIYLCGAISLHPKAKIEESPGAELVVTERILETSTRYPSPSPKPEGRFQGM
Briefly: ELISA, plate-coated recombinant PD-1 extracellular domain. How it is done: as §1
Background: In an ELISA, binding on a coated surface is turned into a signal by an enzyme label.

The target of assay [7] is T5, Mouse PD-1 overexpressed on HEK293 cells (mouse, UniProt Q02242 25-288).
T5 construct: whole, on cells
T5 sequence (looked up): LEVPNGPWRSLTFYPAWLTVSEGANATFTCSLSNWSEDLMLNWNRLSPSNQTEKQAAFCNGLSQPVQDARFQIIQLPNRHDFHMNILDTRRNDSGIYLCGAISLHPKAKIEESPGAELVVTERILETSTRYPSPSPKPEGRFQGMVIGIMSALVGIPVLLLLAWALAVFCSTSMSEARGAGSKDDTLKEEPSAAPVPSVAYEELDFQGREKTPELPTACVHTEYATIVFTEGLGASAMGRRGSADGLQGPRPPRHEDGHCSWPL
The assay is described as follows: flow cytometry on HEK293 cells overexpressing mouse PD-1. How it is done: as §2
On the technique in general: A flow cytometer gives signals particle by particle.

T1 sequence (Q15116 25-288): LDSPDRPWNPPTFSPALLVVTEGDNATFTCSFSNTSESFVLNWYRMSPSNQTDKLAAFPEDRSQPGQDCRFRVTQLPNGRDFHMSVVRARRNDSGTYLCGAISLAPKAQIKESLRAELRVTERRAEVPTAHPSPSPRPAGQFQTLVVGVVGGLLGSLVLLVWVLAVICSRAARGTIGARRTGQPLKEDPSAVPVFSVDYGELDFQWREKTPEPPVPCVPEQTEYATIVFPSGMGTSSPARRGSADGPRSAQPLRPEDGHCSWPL
T3 sequence (Q15116 25-288): as above
T2 sequence (Q15116 25-170): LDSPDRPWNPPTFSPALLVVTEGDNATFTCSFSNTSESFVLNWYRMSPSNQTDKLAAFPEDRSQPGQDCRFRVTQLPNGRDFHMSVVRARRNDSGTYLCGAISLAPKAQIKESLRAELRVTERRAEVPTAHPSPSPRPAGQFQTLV

B1: Anti-PD-1 IgM #1 (antibody)
VH: EVQLQESGPGLVKPSQTLSLTCTVTGYSITSDYAWNWIRQPPGKKLEWMGYINYSGSTSYNPSLKSRVTISRDTSKNQFSLKLSSVTAADTAVYYCARWIGSSAWYFDVWGQGTLVTVS
VL: DVLMTQTPLSLSVTPGQPASISCRSGQNIVHSNGNTYLEWYLQKPGQSPKLLIYKVSNRFFGVPDRISGSGSGTDFTLKISRVEAEDVGVYFCFQGSHVPFTFGQGTKLEIK
chain: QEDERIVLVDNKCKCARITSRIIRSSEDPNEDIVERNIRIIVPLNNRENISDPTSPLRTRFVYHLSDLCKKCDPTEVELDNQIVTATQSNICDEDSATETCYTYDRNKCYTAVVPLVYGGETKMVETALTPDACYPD
notes: also called Antibody #1 (IgM format); pentameric IgM #1
B1: in assay [1], the “PD-1 Signaling EC50 (PATHHUNTER Checkpoint Signaling Assay, reporter Jurkat cells), IgM” value was found to be 0.014 nM. In addition, the “PD-1 Signaling EC50 (second incubation at 4 C), IgM” value in assay [2] came out at 0.031 nM. Also, the EC50 was found to be 0.087 nM in assay [3] and 0.2 nM in assay [4]. In addition, the “PD-1 Signaling EC50 (method of Example 8), IgM” value in assay [5] turned out to be 0.057 nM. The binding result in assay [6] and in assay [7] was “no binding” in each case.
